Data as given in patent US20140143908A1.

How the values were obtained:
[1] = target: T1, Oryza sativa trehalose-6-phosphate phosphatase, wild type (OsT6PP-WT)
T1 chain: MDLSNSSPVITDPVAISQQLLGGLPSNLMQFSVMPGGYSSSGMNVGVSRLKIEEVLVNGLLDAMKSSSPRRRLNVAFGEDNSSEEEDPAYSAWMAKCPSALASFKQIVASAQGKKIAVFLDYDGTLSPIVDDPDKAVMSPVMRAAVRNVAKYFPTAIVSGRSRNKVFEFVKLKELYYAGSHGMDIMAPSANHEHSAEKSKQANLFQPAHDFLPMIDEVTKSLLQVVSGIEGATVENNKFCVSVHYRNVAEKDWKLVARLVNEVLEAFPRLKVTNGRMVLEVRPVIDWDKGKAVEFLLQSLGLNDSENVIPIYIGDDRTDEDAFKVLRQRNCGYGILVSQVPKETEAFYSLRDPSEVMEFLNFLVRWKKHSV

[2] = target: T2, N-terminal truncated OsT6PP-D56NT
T2 chain: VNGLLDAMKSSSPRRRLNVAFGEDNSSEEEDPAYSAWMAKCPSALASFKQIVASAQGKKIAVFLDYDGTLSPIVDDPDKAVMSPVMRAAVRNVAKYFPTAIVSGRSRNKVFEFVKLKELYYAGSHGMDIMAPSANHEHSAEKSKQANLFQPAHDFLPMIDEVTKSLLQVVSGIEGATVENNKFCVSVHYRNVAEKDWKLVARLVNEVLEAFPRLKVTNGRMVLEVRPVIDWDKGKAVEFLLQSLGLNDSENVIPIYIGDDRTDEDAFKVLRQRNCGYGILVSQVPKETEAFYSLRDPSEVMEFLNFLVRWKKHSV

[3] = target: Oryza sativa trehalose-6-phosphate phosphatase, wild type (OsT6PP-WT) (Oryza sativa) (UniProt Q75WV3); assay: cell-based or functional assay

B1: Oryza sativa trehalose-6-phosphate phosphatase single modification H244D (OsT6PP-H244D) (protein)
chain: MDLSNSSPVITDPVAISQQLLGGLPSNLMQFSVMPGGYSSSGMNVGVSRLKIEEVLVNGLLDAMKSSSPRRRLNVAFGEDNSSEEEDPAYSAWMAKCPSALASFKQIVASAQGKKIAVFLDYDGTLSPIVDDPDKAVMSPVMRAAVRNVAKYFPTAIVSGRSRNKVFEFVKLKELYYAGSHGMDIMAPSANHEHSAEKSKQANLFQPAHDFLPMIDEVTKSLLQVVSGIEGATVENNKFCVSVDYRNVAEKDWKLVARLVNEVLEAFPRLKVTNGRMVLEVRPVIDWDKGKAVEFLLQSLGLNDSENVIPIYIGDDRTDEDAFKVLRQRNCGYGILVSQVPKETEAFYSLRDPSEVMEFLNFLVRWKKHSV
T6PP activity, trehalose formed (µM), 20 min, OsT6PP-WT (1 µg/ml) with 0.5 µg/mL OsT6PP-H244D; WT alone 28.7 [1]: 34.9 µM | T6PP activity, trehalose formed (µM), 20 min, OsT6PP-WT (1 µg/ml) with 1 µg/mL OsT6PP-H244D; WT alone 28.7 [1]: 40.1 µM | T6PP activity, trehalose formed (µM), 20 min, OsT6PP-WT (1 µg/ml) with 2 µg/mL OsT6PP-H244D; WT alone 28.7 [1]: 52.3 µM | T6PP activity, trehalose formed (µM), 20 min, OsT6PP-WT (1 µg/ml) with 5 µg/mL OsT6PP-H244D; WT alone 28.7 [1]: 71.7 µM | T6PP activity, trehalose formed (µM), 20 min, OsT6PP-WT (1 µg/ml) with 10 µg/mL OsT6PP-H244D; WT alone 28.7, H244D alone 2.2 [1]: 77.7 µM | T6PP activity, trehalose formed (µM), 20 min, OsT6PP-WT (1 µg/ml) with 20 µg/mL OsT6PP-H244D; WT alone 28.7, H244D alone 6.2 [1]: 101 µM | fold increase of T6PP activity [1]: An approximately 3-fold increased T6PP activity was observed when OsT6PP-WT was assayed in presence of OsT6PP-H244D | trehalose 6-phosphate phosphatase activity (in vitro) [1]: Increased trehalose 6-phosphate phosphatase activity (in vitro) of OsT6PP-WT is observed in the presence of its catalytically inefficient variants, including OsT6PP-H244D, OsT6PP-H244S and OsT6PP-S242E | fold increase of T6PP activity [2]: a 1.7 fold increase in T6PP activity was observed when N-terminal truncated OsT6PP-D56NT was mixed with OsT6PP-H244D | Trehalose formed (µM), 20 min, mixture of OsT6PP-WT (1 µg/ml) and OsT6PP-H244D (10 µg/ml); WT alone 25.3, H244D alone 1.1 [3]: 89.5 µM | Trehalose formed (µM), 40 min, mixture of OsT6PP-WT (1 µg/ml) and OsT6PP-H244D (10 µg/ml); WT alone 33.6, H244D alone 4.6 [3]: 155 µM | Trehalose formed (µM), 60 min, mixture of OsT6PP-WT (1 µg/ml) and OsT6PP-H244D (10 µg/ml); WT alone 36.8, H244D alone 5.9 [3]: 220 µM

B2: OsT6PP-H244S (protein)
chain: MDLSNSSPVITDPVAISQQLLGGLPSNLMQFSVMPGGYSSSGMNVGVSRLKIEEVLVNGLLDAMKSSSPRRRLNVAFGEDNSSEEEDPAYSAWMAKCPSALASFKQIVASAQGKKIAVFLDYDGTLSPIVDDPDKAVMSPVMRAAVRNVAKYFPTAIVSGRSRNKVFEFVKLKELYYAGSHGMDIMAPSANHEHSAEKSKQANLFQPAHDFLPMIDEVTKSLLQVVSGIEGATVENNKFCVSVSYRNVAEKDWKLVARLVNEVLEAFPRLKVTNGRMVLEVRPVIDWDKGKAVEFLLQSLGLNDSENVIPIYIGDDRTDEDAFKVLRQRNCGYGILVSQVPKETEAFYSLRDPSEVMEFLNFLVRWKKHSV
trehalose 6-phosphate phosphatase activity (in vitro) [1]: Increased trehalose 6-phosphate phosphatase activity (in vitro) of OsT6PP-WT is observed in the presence of its catalytically inefficient variants, including OsT6PP-H244D, OsT6PP-H244S and OsT6PP-S242E

B3: OsT6PP-S242E (protein)
chain: MDLSNSSPVITDPVAISQQLLGGLPSNLMQFSVMPGGYSSSGMNVGVSRLKIEEVLVNGLLDAMKSSSPRRRLNVAFGEDNSSEEEDPAYSAWMAKCPSALASFKQIVASAQGKKIAVFLDYDGTLSPIVDDPDKAVMSPVMRAAVRNVAKYFPTAIVSGRSRNKVFEFVKLKELYYAGSHGMDIMAPSANHEHSAEKSKQANLFQPAHDFLPMIDEVTKSLLQVVSGIEGATVENNKFCVEVHYRNVAEKDWKLVARLVNEVLEAFPRLKVTNGRMVLEVRPVIDWDKGKAVEFLLQSLGLNDSENVIPIYIGDDRTDEDAFKVLRQRNCGYGILVSQVPKETEAFYSLRDPSEVMEFLNFLVRWKKHSV
trehalose 6-phosphate phosphatase activity (in vitro) [1]: Increased trehalose 6-phosphate phosphatase activity (in vitro) of OsT6PP-WT is observed in the presence of its catalytically inefficient variants, including OsT6PP-H244D, OsT6PP-H244S and OsT6PP-S242E
